In patent publication US20220332804A1 (CSL INNOVATION, published 2022) one finds Kd data, which are given here for one molecule.

Experiment in all cases: SPR, antibody captured, C2 as analyte;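 note: biacore SPR at 37 °C, anti-C2 mAbs captured via goat anti-human IgG on CM5 chips, double-referenced sensorgrams fit to a 1:1 kinetic or steady-state model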
(In general: SPR reads the build-up and loss of mass on a sensor chip optically.)

In one experiment the target is T1, human C2 P650A (human, UniProt P06681 21-752).
T1 sequence: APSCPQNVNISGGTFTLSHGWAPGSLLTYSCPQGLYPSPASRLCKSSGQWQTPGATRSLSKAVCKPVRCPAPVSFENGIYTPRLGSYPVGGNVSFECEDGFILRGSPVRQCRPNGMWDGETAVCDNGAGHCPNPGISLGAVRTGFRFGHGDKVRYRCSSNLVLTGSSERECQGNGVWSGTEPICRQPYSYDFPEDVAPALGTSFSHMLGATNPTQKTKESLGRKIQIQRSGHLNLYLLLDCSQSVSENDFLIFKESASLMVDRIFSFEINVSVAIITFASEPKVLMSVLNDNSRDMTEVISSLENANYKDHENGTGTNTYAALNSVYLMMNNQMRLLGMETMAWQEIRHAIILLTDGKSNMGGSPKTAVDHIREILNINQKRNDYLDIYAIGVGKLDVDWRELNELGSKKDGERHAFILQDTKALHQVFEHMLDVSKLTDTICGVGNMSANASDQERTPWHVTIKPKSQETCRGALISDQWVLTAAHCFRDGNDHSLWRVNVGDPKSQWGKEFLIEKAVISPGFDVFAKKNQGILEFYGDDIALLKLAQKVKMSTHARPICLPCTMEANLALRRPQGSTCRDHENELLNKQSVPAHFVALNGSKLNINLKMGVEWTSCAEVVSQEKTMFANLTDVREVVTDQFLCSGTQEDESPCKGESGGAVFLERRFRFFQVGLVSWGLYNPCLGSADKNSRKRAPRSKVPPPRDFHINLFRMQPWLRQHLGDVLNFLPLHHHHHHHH

For the next experiment, the target named is T2, human C2 R688A (human, UniProt P06681 21-752).
T2 sequence: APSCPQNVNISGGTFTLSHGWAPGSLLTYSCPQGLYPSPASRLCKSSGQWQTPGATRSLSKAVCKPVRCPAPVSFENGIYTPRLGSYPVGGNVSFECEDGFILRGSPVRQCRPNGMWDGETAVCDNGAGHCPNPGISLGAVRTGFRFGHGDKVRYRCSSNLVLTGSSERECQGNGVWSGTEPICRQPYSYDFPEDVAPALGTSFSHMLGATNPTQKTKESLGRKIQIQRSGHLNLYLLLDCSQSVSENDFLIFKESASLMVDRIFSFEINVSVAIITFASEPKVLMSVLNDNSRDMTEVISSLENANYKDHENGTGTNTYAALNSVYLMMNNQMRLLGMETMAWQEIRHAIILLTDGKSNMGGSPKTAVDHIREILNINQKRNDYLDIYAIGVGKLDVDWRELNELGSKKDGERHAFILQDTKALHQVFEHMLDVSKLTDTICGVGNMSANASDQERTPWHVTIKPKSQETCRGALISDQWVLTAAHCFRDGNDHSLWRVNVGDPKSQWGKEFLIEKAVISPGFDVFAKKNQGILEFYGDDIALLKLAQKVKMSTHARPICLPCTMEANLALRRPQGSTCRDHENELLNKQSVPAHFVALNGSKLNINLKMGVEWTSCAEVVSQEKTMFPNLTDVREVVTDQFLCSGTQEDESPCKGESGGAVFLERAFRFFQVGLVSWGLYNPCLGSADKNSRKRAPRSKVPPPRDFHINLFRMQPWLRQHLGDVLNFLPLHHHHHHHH

For another experiment, the target named is T3, human C2 A436S (human, UniProt P06681 21-752).
T3 sequence: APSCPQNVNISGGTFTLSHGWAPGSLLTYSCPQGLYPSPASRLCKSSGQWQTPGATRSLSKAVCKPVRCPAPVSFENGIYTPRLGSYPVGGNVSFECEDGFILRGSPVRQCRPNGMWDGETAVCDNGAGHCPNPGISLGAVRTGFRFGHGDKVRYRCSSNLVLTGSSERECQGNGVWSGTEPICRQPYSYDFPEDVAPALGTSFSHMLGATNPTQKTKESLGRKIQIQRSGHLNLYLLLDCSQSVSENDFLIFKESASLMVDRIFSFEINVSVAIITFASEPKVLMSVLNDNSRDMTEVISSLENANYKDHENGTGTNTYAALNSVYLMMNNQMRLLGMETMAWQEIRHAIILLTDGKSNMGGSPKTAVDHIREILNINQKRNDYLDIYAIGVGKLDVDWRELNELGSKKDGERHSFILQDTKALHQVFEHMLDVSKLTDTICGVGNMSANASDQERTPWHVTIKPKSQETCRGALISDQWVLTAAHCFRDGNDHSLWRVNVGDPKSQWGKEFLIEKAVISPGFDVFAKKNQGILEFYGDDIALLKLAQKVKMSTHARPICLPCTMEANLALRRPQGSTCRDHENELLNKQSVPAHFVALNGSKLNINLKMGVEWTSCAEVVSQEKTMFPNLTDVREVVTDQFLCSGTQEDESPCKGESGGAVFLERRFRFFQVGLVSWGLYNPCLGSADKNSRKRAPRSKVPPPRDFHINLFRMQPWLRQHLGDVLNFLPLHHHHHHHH

The target of a further experiment is T4, human C2 S278A (human, UniProt P06681 21-752).
T4 sequence: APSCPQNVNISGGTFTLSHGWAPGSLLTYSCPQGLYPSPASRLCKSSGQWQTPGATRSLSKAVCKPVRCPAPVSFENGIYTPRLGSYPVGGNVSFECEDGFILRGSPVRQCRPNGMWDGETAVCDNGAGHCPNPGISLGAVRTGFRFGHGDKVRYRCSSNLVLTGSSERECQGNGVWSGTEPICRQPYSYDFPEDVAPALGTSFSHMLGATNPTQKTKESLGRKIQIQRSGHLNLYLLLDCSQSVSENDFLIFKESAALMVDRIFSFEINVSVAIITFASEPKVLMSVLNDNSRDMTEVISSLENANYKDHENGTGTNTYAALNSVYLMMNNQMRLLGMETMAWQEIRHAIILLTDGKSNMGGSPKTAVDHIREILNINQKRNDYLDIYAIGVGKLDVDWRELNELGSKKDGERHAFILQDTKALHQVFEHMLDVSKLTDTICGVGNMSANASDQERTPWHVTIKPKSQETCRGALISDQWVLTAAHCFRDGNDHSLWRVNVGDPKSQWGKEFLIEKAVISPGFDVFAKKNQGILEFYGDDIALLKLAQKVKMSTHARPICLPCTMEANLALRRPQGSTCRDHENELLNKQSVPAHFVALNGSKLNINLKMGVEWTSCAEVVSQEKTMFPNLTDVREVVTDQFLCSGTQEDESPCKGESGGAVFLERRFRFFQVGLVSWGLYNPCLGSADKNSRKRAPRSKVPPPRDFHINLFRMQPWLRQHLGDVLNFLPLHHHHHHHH

B1: RF16-226 (antibody, human IgG4 S228P, lambda)
heavy: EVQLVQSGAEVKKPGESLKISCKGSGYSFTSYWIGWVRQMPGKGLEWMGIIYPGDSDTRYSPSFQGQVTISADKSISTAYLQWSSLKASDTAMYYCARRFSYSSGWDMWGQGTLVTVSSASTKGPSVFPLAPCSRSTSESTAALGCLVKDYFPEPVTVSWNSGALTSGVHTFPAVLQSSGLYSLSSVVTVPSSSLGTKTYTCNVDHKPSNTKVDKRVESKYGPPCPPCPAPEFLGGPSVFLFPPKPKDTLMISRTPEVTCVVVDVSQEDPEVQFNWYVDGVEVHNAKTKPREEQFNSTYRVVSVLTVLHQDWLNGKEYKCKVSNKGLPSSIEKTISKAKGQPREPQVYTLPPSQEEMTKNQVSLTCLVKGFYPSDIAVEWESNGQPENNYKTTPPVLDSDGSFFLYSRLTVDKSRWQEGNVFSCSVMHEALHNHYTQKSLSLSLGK
light: SYELTQPPSVSVSPGQTARITCSGDALTSKYVAWYQQKSGLAPLLVIYEDTRRPSGIPAKFSGSSSGSVATLTISGAHGDDEADYYCYSTDASGHQRVFGGGTKLTVLSQPKAAPSVTLFPPSSEELQANKATLVCLISDFYPGAVTVAWKADGSPVKAGVETTKPSKQSNNKYAASSYLSLTPEQWKSHRSYSCQVTHEGSTVEKTVAPTECS
notes: pH-dependent anti-C2 antibody from a phage display library; also called WT
B1: the Kd (as a rule, the free concentration of one partner at which half of the binding sites on the other are occupied at equilibrium, for simple one-to-one binding) was 18.3 nM with human C2 P650A, 25.3 nM in the experiment with human C2 R688A, 6.2 nM in the experiment with human C2 A436S and 9.4 nM with human C2 S278A.
